# Data reported in publication PMC3642328, “Ataxia Telangiectasia-Mutated (ATM) Kinase Activity Is Regulated by ATP-driven Conformational Changes in the Mre11/Rad50/Nbs1 (MRN) Complex*^([image sbox.jpg])” (The Journal of Biological Chemistry, 2013).
# Where “and” joins values, the source holds several entries; their conditions need not be identical. Equal values may be shown once.
# B1: Nbs1 (wild-type) (natural protein, human, UniProt O60934 1-754, looked up)
# chain: MWKLLPAAGPAGGEPYRLLTGVEYVVGRKNCAILIENDQSISRNHAVLTANFSVTNLSQTDEIPVLTLKDNSKYGTFVNEEKMQNGFSRTLKSGDGITFGVFGSKFRIEYEPLVACSSCLDVSGKTALNQAILQLGGFTVNNWTEECTHLVMVSVKVTIKTICALICGRPIVKPEYFTEFLKAVESKKQPPQIESFYPPLDEPSIGSKNVDLSGRQERKQIFKGKTFIFLNAKQHKKLSSAVVFGGGEARLITEENEEEHNFFLAPGTCVVDTGITNSQTLIPDCQKKWIQSIMDMLQRQGLRPIPEAEIGLAVIFMTTKNYCDPQGHPSTGLKTTTPGPSLSQGVSVDEKLMPSAPVNTTTYVADTESEQADTWDLSERPKEIKVSKMEQKFRMLSQDAPTVKESCKTSSNNNSMVSNTLAKMRIPNYQLSPTKLPSINKSKDRASQQQQTNSIRNYFQPSTKKRERDEENQEMSSCKSARIETSCSLLEQTQPATPSLWKNKEQHLSENEPVDTNSDNNLFTDTDLKSIVKNSASKSHAAEKLRSNKKREMDDVAIEDEVLEQLFKDTKPELEIDVKVQKQEEDVNVRKRPRMDIETNDTFSDEAVPESSKISQENEIGKKRELKEDSLWSAKEISNNDKLQDDSEMLPKKLLLTEFRSLVIKNSTSRNPSGINDDYGQLKNFKKFKKVTYPGAGKLPHIIGGSDLIAHHARKNTELEEWLRQEMEVQNQHAKEESLADDLFRYNPYLKRRR
# notes: wild-type Nbs1, component of the human MRN complex; expressed from transfer vector pTP288 / bacmid pTP291; Used apart from MR (added to MR complexes, coated on PMMA beads); source: Sf21 insect cells, baculovirus, purified
# How the values were obtained:
# ATM = target: T1, ATM (Homo sapiens, UniProt Q13315, Y2755A); assay: kinase assay, GST-p53 Ser-15 phosphorylation, Western blot; format: biochemical; settings: H2O2-activated ATM without MRN; analog 1 mM; pH 7.5, 5 mM Mg, 30 C
# T1 construct: full-length, Flag-tagged and HA-tagged, transiently expressed in human 293T cells, purified as dimer
# [1] = target: Mre11/Rad50 (MR) complex, wild-type full-length (human) (UniProt P49959); assay: scanning force microscopy (SFM); protein alone: 3 nM human MR in 25 mM Tris-HCl pH 8.0, 10% glycerol, 100 mM NaCl, 1 mM DTT; diluted 5-fold in 10 mM HEPES pH 8.0, 20 mM MgCl2, deposited on mica, imaged in air by tapping mode; forms counted by the number of Rad50 coiled-coils
# [2] = target: T2, Mre11/Rad50(C2G) complex (Rad50 C681G/C684G) (human, UniProt P49959 1-708; Q92878 1-1312, C681G | C684G); assay: +ATP
# [3] = target: T3, Mre11/Rad50(C2G) complex (Rad50 C681G/C684G) (human, UniProt P49959 1-708; Q92878 1-1312, C681G | C684G); assay: KinExA (kinetic exclusion assay); in the presence of ATP (concentration not stated); 1, 5 and 25 nM MR incubated with 6.1 pM to 400 nM Nbs1 (2-fold dilutions) 1 h at room temperature; free MR captured on Nbs1-coated PMMA beads, detected with anti-Mre11 and Cy5 secondary antibody; PBS; n-Curve Analysis; settings: both partners purified
# T3 construct: wild-type human Mre11 (pTP813), as the Mre11 chain of m2; human Rad50 with both zinc hook cysteines mutated; made by QuikChange mutagenesis from pTP11 (the wild-type Rad50 of m2); Zinc hook mutant; also called MR(C2G); C2G MR complex; source: Sf21 insect cells, coexpression with baculovirus, purified
# [4] = target: T4, Mre11/Rad50 (MR) complex, wild-type full-length (human, UniProt P49959 1-708; Q92878 1-1312); assay: as above; settings: both partners purified
# T4 construct: wild-type human Mre11, transfer vector pTP813 / bacmid pTP814; wild-type human Rad50, transfer vector pTP11; 1312 residues by the printed construct limits; The unit written here is one Mre11 with one Rad50; also called wild-type MR; human MR; source: Sf21 insect cells, coexpression with baculovirus, purified
# [5] = target: T2, Mre11/Rad50(C2G) complex (Rad50 …; assay: -ATP
# [6] = target: T4, Mre11/Rad50 (MR) complex, wild-type …; assay: KinExA (kinetic exclusion assay); without ATP; 1, 5 and 25 nM MR incubated with 6.1 pM to 400 nM Nbs1 (2-fold dilutions) 1 h at room temperature; free MR captured on Nbs1-coated PMMA beads, detected with anti-Mre11 and Cy5 secondary antibody; PBS; n-Curve Analysis; settings: both partners purified
# Nbs1 (wild-type) [7] = target: B1; assay: KinExA (kinetic exclusion assay); in the presence of ATP (concentration not stated); 1, 5 and 25 nM MR incubated with 6.1 pM to 400 nM Nbs1 (2-fold dilutions) 1 h at room temperature; free MR captured on Nbs1-coated PMMA beads, detected with anti-Mre11 and Cy5 secondary antibody; PBS; n-Curve Analysis; settings: both partners purified
# Nbs1 (wild-type) [8] = target: B1; assay: KinExA (kinetic exclusion assay); without ATP; 1, 5 and 25 nM MR incubated with 6.1 pM to 400 nM Nbs1 (2-fold dilutions) 1 h at room temperature; free MR captured on Nbs1-coated PMMA beads, detected with anti-Mre11 and Cy5 secondary antibody; PBS; n-Curve Analysis; settings: both partners purified
# [9] = target: Mre11/Rad50/Nbs1 (MRN) wild-type (human, UniProt P49959;Q92878;O60934 1-708;1-1312;1-754); assay: EMSA; 0.5 mM AMP-PNP, 5 mM MgCl2, Nbs1 present, 100-200 nM MR; EMSA (Fig. 6A): 10 nM DNA, 25 mM MOPS pH 7.0, 20 mM Tris pH 8.0, 5 mM MgCl2, 8% glycerol, 80 mM NaCl, 2 mM DTT, 0.5 mM AMP-PNP, temperature not stated; SFM: 25; settings: protein: recombinant; chain copies: 2;2;2; label: Cy5 at 3' end of TP2109; 41 bp duplex, 4 nt 3' overhang on strand 2, other end blunt
# MR(C2G)N = MR(C2G)N (human, UniProt P49959;Q92878;O60934 1-708;1-1312;1-754, C681G;C684G;Rad50); assay: EMSA; 0.5 mM AMP-PNP, 5 mM MgCl2, Nbs1 present; altered mobility and complex formation efficiency vs WT; EMSA (Fig. 6A): 10 nM DNA, 25 mM MOPS pH 7.0, 20 mM Tris pH 8.0, 5 mM MgCl2, 8% glycerol, 80 mM NaCl, 2 mM DTT, 0.5 mM AMP-PNP, temperature not stated; SFM: 25; settings: protein: recombinant; chain copies: 2;2;1; label: Cy5 at 3' end of TP2109; 41 bp duplex, 4 nt 3' overhang on strand 2, other end blunt
# T1 sequence (Q13315 2-3056 Y2755A): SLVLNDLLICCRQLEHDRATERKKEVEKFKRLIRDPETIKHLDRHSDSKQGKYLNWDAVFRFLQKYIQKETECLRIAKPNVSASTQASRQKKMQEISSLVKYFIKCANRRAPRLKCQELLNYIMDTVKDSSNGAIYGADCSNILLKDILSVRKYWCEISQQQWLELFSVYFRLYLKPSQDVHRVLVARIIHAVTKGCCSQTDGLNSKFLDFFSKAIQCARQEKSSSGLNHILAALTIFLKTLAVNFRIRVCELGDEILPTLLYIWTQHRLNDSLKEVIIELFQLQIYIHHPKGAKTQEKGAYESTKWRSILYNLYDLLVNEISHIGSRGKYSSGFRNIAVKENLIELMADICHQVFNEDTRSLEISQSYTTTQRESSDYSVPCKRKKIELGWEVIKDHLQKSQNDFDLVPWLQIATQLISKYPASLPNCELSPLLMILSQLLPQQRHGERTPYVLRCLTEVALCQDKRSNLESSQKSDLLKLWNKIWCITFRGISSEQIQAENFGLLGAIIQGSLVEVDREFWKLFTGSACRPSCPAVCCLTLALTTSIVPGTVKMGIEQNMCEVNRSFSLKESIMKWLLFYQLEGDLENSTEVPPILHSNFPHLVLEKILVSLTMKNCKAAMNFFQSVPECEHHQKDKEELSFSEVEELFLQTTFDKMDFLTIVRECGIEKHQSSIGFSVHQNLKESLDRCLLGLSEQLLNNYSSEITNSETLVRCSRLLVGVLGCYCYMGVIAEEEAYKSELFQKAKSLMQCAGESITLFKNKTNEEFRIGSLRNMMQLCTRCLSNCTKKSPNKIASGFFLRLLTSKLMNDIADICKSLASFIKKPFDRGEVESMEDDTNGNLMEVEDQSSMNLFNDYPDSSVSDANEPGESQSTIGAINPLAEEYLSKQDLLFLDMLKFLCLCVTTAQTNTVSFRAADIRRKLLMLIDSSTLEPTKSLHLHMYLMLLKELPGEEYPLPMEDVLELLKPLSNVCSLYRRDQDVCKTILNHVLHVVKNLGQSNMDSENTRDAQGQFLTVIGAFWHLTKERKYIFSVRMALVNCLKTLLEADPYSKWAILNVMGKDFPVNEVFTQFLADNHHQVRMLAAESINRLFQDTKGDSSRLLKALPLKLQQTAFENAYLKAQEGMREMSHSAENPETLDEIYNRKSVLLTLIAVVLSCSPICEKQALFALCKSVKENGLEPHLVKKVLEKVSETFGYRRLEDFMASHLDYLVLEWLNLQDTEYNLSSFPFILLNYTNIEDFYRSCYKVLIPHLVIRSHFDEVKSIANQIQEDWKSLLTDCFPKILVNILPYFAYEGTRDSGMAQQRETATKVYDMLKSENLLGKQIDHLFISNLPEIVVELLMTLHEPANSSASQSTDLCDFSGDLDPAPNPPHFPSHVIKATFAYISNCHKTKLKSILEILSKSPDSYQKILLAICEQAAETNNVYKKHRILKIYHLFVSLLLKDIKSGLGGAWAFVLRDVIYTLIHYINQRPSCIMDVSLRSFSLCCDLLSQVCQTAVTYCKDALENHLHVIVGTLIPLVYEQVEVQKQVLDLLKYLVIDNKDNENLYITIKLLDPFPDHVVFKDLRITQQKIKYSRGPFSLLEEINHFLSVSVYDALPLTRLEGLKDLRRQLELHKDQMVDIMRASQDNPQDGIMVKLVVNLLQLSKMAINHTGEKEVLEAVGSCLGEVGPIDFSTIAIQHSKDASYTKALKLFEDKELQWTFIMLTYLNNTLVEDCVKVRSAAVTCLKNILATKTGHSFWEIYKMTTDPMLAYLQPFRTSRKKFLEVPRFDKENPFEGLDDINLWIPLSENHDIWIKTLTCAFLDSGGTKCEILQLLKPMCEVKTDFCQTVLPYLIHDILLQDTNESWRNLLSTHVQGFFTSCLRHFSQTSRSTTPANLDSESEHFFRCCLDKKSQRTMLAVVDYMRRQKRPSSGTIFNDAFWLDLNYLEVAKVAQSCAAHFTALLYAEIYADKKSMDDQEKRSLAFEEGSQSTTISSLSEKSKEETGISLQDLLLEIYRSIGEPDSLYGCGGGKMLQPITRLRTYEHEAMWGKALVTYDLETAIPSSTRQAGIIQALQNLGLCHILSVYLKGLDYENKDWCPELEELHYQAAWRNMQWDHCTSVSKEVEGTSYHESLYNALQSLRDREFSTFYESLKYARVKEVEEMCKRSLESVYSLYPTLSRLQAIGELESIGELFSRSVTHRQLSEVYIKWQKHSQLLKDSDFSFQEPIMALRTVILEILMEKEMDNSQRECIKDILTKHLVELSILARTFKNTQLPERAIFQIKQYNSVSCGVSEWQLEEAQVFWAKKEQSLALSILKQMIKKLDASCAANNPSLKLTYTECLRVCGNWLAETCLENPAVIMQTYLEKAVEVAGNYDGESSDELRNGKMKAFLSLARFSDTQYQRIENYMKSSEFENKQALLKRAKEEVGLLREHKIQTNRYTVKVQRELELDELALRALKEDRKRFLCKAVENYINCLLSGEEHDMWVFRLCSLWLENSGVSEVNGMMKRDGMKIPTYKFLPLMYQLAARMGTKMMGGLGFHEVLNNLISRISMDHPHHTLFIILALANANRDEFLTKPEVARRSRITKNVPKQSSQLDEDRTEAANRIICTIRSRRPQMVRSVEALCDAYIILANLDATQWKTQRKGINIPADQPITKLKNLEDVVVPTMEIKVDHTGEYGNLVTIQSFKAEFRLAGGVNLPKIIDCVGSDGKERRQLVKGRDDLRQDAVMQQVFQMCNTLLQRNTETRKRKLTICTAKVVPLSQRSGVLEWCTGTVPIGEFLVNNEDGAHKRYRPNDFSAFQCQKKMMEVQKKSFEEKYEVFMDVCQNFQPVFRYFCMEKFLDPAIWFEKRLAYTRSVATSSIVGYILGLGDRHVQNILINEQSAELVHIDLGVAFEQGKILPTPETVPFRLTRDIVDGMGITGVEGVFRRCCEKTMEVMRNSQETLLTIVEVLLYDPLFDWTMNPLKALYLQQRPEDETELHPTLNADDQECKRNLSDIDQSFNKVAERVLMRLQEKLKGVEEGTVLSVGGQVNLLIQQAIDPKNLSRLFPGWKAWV
molecule,measurement,setting,value
"O=P(O)(O)OP(=O)(O)OP(=O)(O)OC[C@H]1O[C@@H](n2cnc3c(NCc4ccco4)ncnc32)[C@H](O)[C@@H]1O [N6-(furfuryl)-ATP, N6-furfuryladenosine-5′-O-triphosphate]","kinase assay, GST-p53 Ser-15 phosphorylation, Western blot",ATM,This nucleotide was utilized by Y2755A ATM but not by wild-type ATM
"Mre11/Rad50 (MR) complex, wild-type full-length, P49959 1-708; Q92878 1-1312",stoichiometry N,[1],2 and > 4
B1,Kd,[2],110 pM
same,fold higher affinity in the presence of ATP than in the absence of ATP,[3],~70 fold
same,Kd,[4],3.82 pM
same,Kd,[5],7300 pM
same,Kd,[6],9.17 pM
"Mre11/Rad50(DelCC) complex (Rad50 coiled-coil region replaced with a linker) (complex, human, wild-type human Mre11 (pTP813), as the Mre11 chain of m2; human Rad50 N terminus, amino acids 1-216; linker peptide between the two Rad50 domains; human Rad50 C terminus, amino acids 1104-1312; The His tag is inferred from the vector name only; also called MR(DelCC); DelCC MR; source: Sf21 insect cells, coexpression with baculovirus (Bac-to-Bac), purified) chain 1: MSTADALDDENTFKILVATDIHLGFMEKDAVRGNDTFVTLDEILRLAQENEVDFILLGGDLFHENKPSRKTLHTCLELLRKYCMGDRPVQFEILSDQSVNFGFSKFPWVNYQDGNLNISIPVFSIHGNHDDPTGADALCALDILSCAGFVNHFGRSMSVEKIDISPVLLQKGSTKIALYGLGSIPDERLYRMFVNKKVTMLRPKEDENSWFNLFVIHQNRSKHGSTNFIPEQFLDDFIDLVIWGHEHECKIAPTKNEQQLFYISQPGSSVVTSLSPGEAVKKHVGLLRIKGRKMNMHKIPLHTVRQFFMEDIVLANHPDIFNPDNPKVTQAIQSFCLEKIEEMLENAERERLGNSHQPEKPLVRLRVDYSGGFEPFSVLRFSQKFVDRVANPKDIIHFFRHREQKEKTGEEINFGKLITKPSEGTTLRVEDLVKQYFQTAEKNVQLSLLTERGMGEAVQEFVDKEEKDAIEELVKYQLEKTQRFLKERHIDALEDKIDEEVRRFRETRQKNTNEEDDEVREAMTRARALRSQSEESASAFSADDLMSIDLAEQMANDSDDSISAATNKGRGRGRGRRGGRGQNSASRGGSQRGRADTGLETSTRSRNSKTAVSASRNMSIIDAFKSTRQQPSRNVTTKNYSEVIEVDESDVEEDIFPTTSKTDQRWSSTSSSKIMSQSQVSKGVDFESSEDDDDDPFMNTSSLRRNRR chain 2: MSRIEKMSILGVRSFGIEDKDKQIITFFSPLTILVGPNGAGKTTIIECLKYICTGDFPPGTKGNTFVHDPKVAQETDVRAQIRLQFRDVNGELIAVQRSMVCTQKSKKTEFKTLEGVITRTKHGEKVSLSSKCAEIDREMISSLGVSKAVLNNVIFCHQEDSNWPLSEGKALKQKFDEIFSATRYIKALETLRQVRQTQGQKVKEYQMELKYLKQYPPAAAGGYREMMIVMRTTELVNKDLDIYYKTLDQAIMKFHSMKMEEINKIIRDLWRSTYRGQDIEYIEIRSDADENVSASDKRRNYNYRVVMLKGDTALDMRGRCSAGQKVLASLIIRLALAETFCLNCGIIALDEPTTNLDRENIESLAHALVEIIKSRSQQRNFQLLVITHDEDFVELLGRSEYVEKFYRIKKNIDQCSEIVKCSVSSLGFNVH",Kd,Nbs1 (wild-type) [7],50.3 pM
same,Kd,Nbs1 (wild-type) [8],17700 pM
TP2151/TP2109 (dsDNA) DNA 1: CTTGCATGCCTCAGCTATTCCGGATTATTCATACCGTCCCA DNA 2: TGGGACGGTATGAATAATCCGGAATAGCTGAGGCATGCAAGTCTA,binding result,[9],binds
same,binding result,MR(C2G)N,binds
